Measurements: patent US20240400720A1 (NOVIMMUNE S A, published 2024)

Experiments:
human CD47 [1] = molecular target: T1, human CD47 (human, UniProt Q08722 19-141, limits assumed); assay: screening of Examples 3 to 6
T1 construct: also called hCD47

[2] = molecular target: T2, cynomolgus monkey CD47 on CD4+ T cells (cynomolgus monkey, UniProt A0A5F8AK49 19-323 (rhesus entry)); assay: flow cytometry on CD4+ T cells in cynomolgus PBMC
T2 construct: whole, on cells; also called cynomolgus CD47

[3] = molecular target: T3, human CD47 on the cell surface (human, UniProt Q08722 19-323); assay: CD47-SIRPα competitive binding assay: His-tagged soluble human SIRPα (200 ng/ml) on hCD47-transfected CHO cells, antibody 3.3 pM-330 nM; blocked ligand SIRPα
T3 construct: whole, on cells; also called huCD47; native CD47

human CD47 [4] = molecular target: T1, human CD47; assay: affinity ranking told with the hemagglutination test
Protocol: CD47 MAbs were tested for their ability to induce homotypic clustering of erythrocytes (hemagglutination). 10 microliters of human whole blood was diluted in 40 microliters of antibody solution in PBS at different concentrations (range: 0.003 microg/ml to 50 microg/ml final Mab concentration) in flat-bottom 96 well plates. The blood-antibody mix was incubated O/N at 37° C. without shaking. At the end of the incubation, the plates were agitated manually, tilted at about […], and let to rest for about 10 minutes.

human CD19 on Raji cells = molecular target: T4, human CD19 on Raji cells (human, UniProt P15391 20-556); assay: FACS on Raji cells (CD19-positive), dose-response
T4 construct: whole, on cells; also called native form of hCD19
T4 sequence (looked up): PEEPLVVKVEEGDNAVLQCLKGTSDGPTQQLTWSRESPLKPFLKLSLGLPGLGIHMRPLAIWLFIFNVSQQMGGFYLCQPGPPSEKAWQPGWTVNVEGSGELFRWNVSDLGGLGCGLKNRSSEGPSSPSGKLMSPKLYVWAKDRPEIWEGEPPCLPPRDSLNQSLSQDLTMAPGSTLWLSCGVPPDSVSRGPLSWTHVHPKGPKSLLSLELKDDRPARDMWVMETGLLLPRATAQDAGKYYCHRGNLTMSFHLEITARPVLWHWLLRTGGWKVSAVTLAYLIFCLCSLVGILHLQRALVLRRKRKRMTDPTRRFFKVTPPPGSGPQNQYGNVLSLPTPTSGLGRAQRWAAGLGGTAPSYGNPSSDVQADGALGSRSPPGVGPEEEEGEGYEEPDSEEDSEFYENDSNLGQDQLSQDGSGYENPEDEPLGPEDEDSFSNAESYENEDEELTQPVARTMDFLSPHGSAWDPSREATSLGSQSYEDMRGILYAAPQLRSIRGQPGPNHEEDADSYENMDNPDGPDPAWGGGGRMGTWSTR

human CD19 [5] = molecular target: T5, human CD19 (human, UniProt P15391 20-291, limits assumed); assay: affinity maturation of B7
T5 construct: also called hCD19
T5 sequence (looked up): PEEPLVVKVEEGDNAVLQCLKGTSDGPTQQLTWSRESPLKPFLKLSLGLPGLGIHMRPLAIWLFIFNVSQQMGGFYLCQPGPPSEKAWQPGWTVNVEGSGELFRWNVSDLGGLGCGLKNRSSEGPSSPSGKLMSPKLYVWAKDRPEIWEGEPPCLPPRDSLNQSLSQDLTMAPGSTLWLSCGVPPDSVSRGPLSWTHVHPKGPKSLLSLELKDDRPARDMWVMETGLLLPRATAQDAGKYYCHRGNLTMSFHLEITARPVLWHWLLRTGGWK

[6] = molecular target: T3, human CD47 on the cell surface; assay: adsorption on erythrocytes: antibody in human whole blood, 30 min at 37 °C, antibody left in plasma measured by ELISA
Protocol: (§1) With more than 5 billion cells per ml of blood, and 25,000 CD47 molecules per cell, erythrocytes represent potentially the major antigen sink for CD47-binding antibodies. To assess the effect of erythrocyte adsorption, CD47 antibodies were incubated with whole blood. Following incubation, the fraction of CD47 antibodies remaining in the plasma was determined by ELISA.
(§2) In brief, 200 μl of whole blood containing an anti-coagulant was mixed with 20 μl of antibody ([…] in PBS) and incubated for 30 minutes at 37° C. with shaking. The plasma was then separated from the cells by centrifugation, and the concentration of unbound antibody determined by ELISA.

human CD19 [7] = molecular target: T5, human CD19; assay: parental antibody, weaker than D11
[8] = molecular target: T3, human CD47 on the cell surface; assay: CD47-SIRPα inhibition assay on Raji cells (competition with soluble SIRPα)
[9] = molecular target: T3, human CD47 on the cell surface; assay: adsorption on erythrocytes: antibody 10 µg/ml in human whole blood, 30 min at 37 °C, antibody left in plasma measured by ELISA
Protocol: as §1, §2

B1: Ke8 antibody (antibody, human IgG1, kappa, V domains shown)
VH: not shown
VL: DIQMTQSPSSLSASVGDRVTITCRASQSISSYLNWYQQKPGKAPKLLIYAASSLQSGVPSRFSGSGSGTDFTLTISSLQPEDFATYYCQQFHKRRPQTFGQGTKVEIKR
notes: IgG, kappa (IGVK1-39)
Human CD47 [1]
  binding result: binds
[2]
  binding result: no binding (tested: 0.005 mg/ml)
[3]
  binding result: binds

B2: Ke8A3 antibody (antibody, human IgG1, kappa, V domains shown)
VH: not shown
VL: DIQMTQSPSSLSASVGDRVTITCRVSQSISKYLNWYQQKPGKAPKLLIYAASSLQSGVPSRFSGSGSGTDFTLTISSLQPEDFATYYCQQRHPRGPSTFGQGTKVEIKR
notes: IgG
[3]
  binding result: binds
Human CD47 [4]
  binding result: binds

B3: D11 antibody (antibody, human IgG1, lambda, V domains shown)
VH: not shown
VL: NFMLTQPHSVSESPGKTVTISCTRSSGSIDDKFVQWYQQRPGSSPTTVIYYDNIRPSGVPDRFSGSIDSSSNSASLTISGLKTEDEADYYCQSYDASLYGWVFGGGTKLTVLG
notes: anti-CD19, IgG, lambda; also called L7B7_D11
Human CD19 on Raji cells
  binding result: binds
Human CD19 [5]
  binding result: binds

B4: C2 antibody (antibody, human IgG1, lambda, V domains shown)
VH: not shown
VL: NFMLTQPHSVSESPGKTVTISCTRSSGSIEDKYVQWYQQRPGSSPTIVIYYDNERPSGVPDRFSGSIDSSSNSASLTISGLKTEDEADYYCQTYDQSLYGWVFGGGTKLTVLG
notes: anti-CD19, IgG, lambda; also called L7B7_C2; L7B7_c2
Human CD19 on Raji cells
  EC50 (read off the curve): ~0.4 nM
[6]
  binding result: no binding (tested: 10 µg/ml)

B5: B7 antibody (antibody, human IgG1, lambda, V domains shown)
VH: not shown
VL: NFMLTQPHSVSESPGKTVTISCTRSSGSIADKYVQWYQQRPGSSPTTVIYEDNQRPSGVPDRFSGSIDSSSNSASLTISGLKTEDEADYYCQSYDSSLYGWVFGGGTKLTVLG
notes: anti-CD19, IgG, lambda (IGLV6-57); parental clone; also called 1B7
Human CD19 on Raji cells
  binding result: binds
Human CD19 [7]
  binding result: binds

B6: CD47xCD19 bispecific antibody with CD47 arm Ke8G11 (bispecific antibody)
heavy: not shown
light 1: DIQMTQSPSSLSASVGDRVTITCRASQSIGRYLNWYQQKPGKAPKLLIYAASSLQSGVPSRFSGSGSGTDFTLTISSLQPEDFATYYCQQMHPRGPKTFGQGTKVEIKRTVAAPSVFIFPPSDEQLKSGTASVVCLLNNFYPREAKVQWKVDNALQSGNSQESVTEQDSKDSTYSLSSTLTLSKADYEKHKVYACEVTHQGLSSPVTKSFNRGEC
light 2: NFMLTQPHSVSESPGKTVTISCTRSSGSIEDKYVQWYQQRPGSSPTIVIYYDNERPSGVPDRFSGSIDSSSNSASLTISGLKTEDEADYYCQTYDQSLYGWVFGGGTKLTVLGQPKAAPSVTLFPPSSEELQANKATLVCLISDFYPGAVTVAWKADSSPVKAGVETTTPSKQSNNKYAASSYLSLTPEQWKSHRSYSCQVTHEGSTVEKTVAPTECS
notes: also called Ke8G11 CD47Xcd19 BsAb; κλ body
[8]
  IC50: 0.066 nM

B7: 5A3M3xC2 (bispecific antibody, human IgG1, kappa, lambda)
common heavy chain: not shown
kappa light chain (5A3-M3, anti-CD47): not shown
lambda light chain (C2, anti-CD19): NFMLTQPHSVSESPGKTVTISCTRSSGSIEDKYVQWYQQRPGSSPTIVIYYDNERPSGVPDRFSGSIDSSSNSASLTISGLKTEDEADYYCQTYDQSLYGWVFGGGTKLTVLGQPKAAPSVTLFPPSSEELQANKATLVCLISDFYPGAVTVAWKADSSPVKAGVETTTPSKQSNNKYAASSYLSLTPEQWKSHRSYSCQVTHEGSTVEKTVAPTECS
notes: m69 has the same CD47 arm but no named CD19 arm; also called bispecific antibody 5A3-M3×C2
[9]
  binding result: binds
